Laboratory results reported in article PMC10003956, “To the Understanding of Catalysis by D-Amino Acid Transaminases: A Case Study of the Enzyme from Aminobacterium colombiense” (Molecules, 2023).

Target: D-amino acid transaminase from Aminobacterium colombiense (AmicoTA) (Aminobacterium colombiense)
Experiment: SEC; gel filtration of AmicoTA in solution (Figure S7); conditions not told for this experiment

stoichiometry N: 2
Substance: D-amino acid transaminase from Aminobacterium colombiense (AmicoTA) (enzyme)
